Assay results reported in patent US20240358847A1 (Merck Sharp & Dohme, published 2024).

T1: TROP2 on BxPC-3 and MDA-MB-231-KWL cells (human, UniProt P09758 27-323)
T1 construct: whole, on cells
T1 sequence (looked up): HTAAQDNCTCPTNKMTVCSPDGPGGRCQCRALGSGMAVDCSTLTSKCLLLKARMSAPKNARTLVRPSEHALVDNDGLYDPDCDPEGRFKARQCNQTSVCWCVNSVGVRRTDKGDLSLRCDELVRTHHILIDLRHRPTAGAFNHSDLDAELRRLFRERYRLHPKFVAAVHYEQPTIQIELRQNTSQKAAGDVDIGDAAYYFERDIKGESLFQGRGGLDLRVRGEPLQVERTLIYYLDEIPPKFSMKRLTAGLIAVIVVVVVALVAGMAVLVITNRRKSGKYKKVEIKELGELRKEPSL


How the values were obtained:
[1] = biological target: T1, TROP2 on BxPC-3 and MDA-MB-231-KWL cells; experiment: on-cell ELISA, BxPC-3 cells (TROP2 high); design: unit not given beside the values
Experimental: (§1) Cells were plated in duplicate onto 96-well plates, and primary antibody was diluted in cell culture medium with a starting concentration of 30 μg/mL (200 nM) with a dilution factor of 1:5. […] Data was plotted and analyzed. EC50 ([…]) was measured along with area under the curve (AUC) for each cell line.

[2] = biological target: T1, TROP2 on BxPC-3 and MDA-MB-231-KWL cells; experiment: on-cell ELISA, BxPC-3 vs MDA-MB-231-KWL cells
Experimental: as §1

[3] = biological target: T1, TROP2 on BxPC-3 and MDA-MB-231-KWL cells; experiment: on-cell ELISA, MDA-MB-231-KWL cells (TROP2 low); design: unit not given beside the values
Experimental: as §1

| AUC (BxPC-3) [1] | ΔAUC [2] | AUC (MDA-MB-231-KWL) [3] | Binder |
| --- | --- | --- | --- |
| 318 | 70.1 | 248 | Sacituzumab (antibody, human IgG1, kappa, V domains shown, also called mAb (parental)) VH: QVQLQQSGSELKKPGASVKVSCKASGYTFTNYGMNWVKQAPGQGLKWMGWINTYTGEPTYTDDFKGRFAFSLDTSVSTAYLQISSLKADDTAVYFCARGGFGSSYWYFDVWGQGSLVTVSS VL: DIQLTQSPSSLSASVGDRVSITCKASQDVSIAVAWYQQKPGKAPKLLIYSASYRYTGVPDRFSGSGSGTDFTLTISSLQPEDFAVYYCQQHYITPLTFGAGTKVEIKR |
| 314 | 93.1 | 221 | mAb_LC_Hm_F101T (antibody, human IgG1, kappa) heavy: not shown light: DIQLTQSPSSLSASVGDRVSITCKASQDVSIAVAWYQQKPGKAPKLLIYSASYRYTGVPDRFSGSGSGTDFTLTISSLQPEDFAVYYCQQHYITPLTFGAGTKVEIKRTVAAPSVFIFPPSDEQLKSGTASVVCLLNNFYPREAKVQWKVDNALQSGNSQESVTEQDSKDSTYSLSSTLTLSKADYEKHKVYACEVTHQGLSSPVTKSFNRGEC |
| 323 | 143 |  | mAb_Lm_Y53R_HC (antibody, human IgG1, kappa) heavy: not shown light: DIQLTQSPSSLSASVGDRVSITCKASQDVSIAVAWYQQKPGKAPKLLIYSASRRYTGVPDRFSGSGSGTDFTLTISSLQPEDFAVYYCQQHYITPLTFGAGTKVEIKRTVAAPSVFIFPPSDEQLKSGTASVVCLLNNFYPREAKVQWKVDNALQSGNSQESVTEQDSKDSTYSLSSTLTLSKADYEKHKVYACEVTHQGLSSPVTKSFNRGEC |
| 303 | 76.1 | 227 | mAb_LC_Hm_F108S (antibody, human IgG1, kappa) heavy: not shown light: DIQLTQSPSSLSASVGDRVSITCKASQDVSIAVAWYQQKPGKAPKLLIYSASYRYTGVPDRFSGSGSGTDFTLTISSLQPEDFAVYYCQQHYITPLTFGAGTKVEIKRTVAAPSVFIFPPSDEQLKSGTASVVCLLNNFYPREAKVQWKVDNALQSGNSQESVTEQDSKDSTYSLSSTLTLSKADYEKHKVYACEVTHQGLSSPVTKSFNRGEC |
| 304 | 134 |  | mAb_Lm_Y53P_HC (antibody, human IgG1, kappa, built from the Sacituzumab light chain with the named substitution) heavy: not shown light: DIQLTQSPSSLSASVGDRVSITCKASQDVSIAVAWYQQKPGKAPKLLIYSASPRYTGVPDRFSGSGSGTDFTLTISSLQPEDFAVYYCQQHYITPLTFGAGTKVEIKRTVAAPSVFIFPPSDEQLKSGTASVVCLLNNFYPREAKVQWKVDNALQSGNSQESVTEQDSKDSTYSLSSTLTLSKADYEKHKVYACEVTHQGLSSPVTKSFNRGEC |
| 142 | 134 | 7.7 | mAb_LC_Hm_G33P (antibody, human IgG1, kappa) heavy: not shown light: DIQLTQSPSSLSASVGDRVSITCKASQDVSIAVAWYQQKPGKAPKLLIYSASYRYTGVPDRFSGSGSGTDFTLTISSLQPEDFAVYYCQQHYITPLTFGAGTKVEIKRTVAAPSVFIFPPSDEQLKSGTASVVCLLNNFYPREAKVQWKVDNALQSGNSQESVTEQDSKDSTYSLSSTLTLSKADYEKHKVYACEVTHQGLSSPVTKSFNRGEC |
| 184 |  | 16.9 | mAb_Lm_H91Y_HC (antibody, human IgG1, kappa) heavy: not shown light: DIQLTQSPSSLSASVGDRVSITCKASQDVSIAVAWYQQKPGKAPKLLIYSASYRYTGVPDRFSGSGSGTDFTLTISSLQPEDFAVYYCQQYYITPLTFGAGTKVEIKRTVAAPSVFIFPPSDEQLKSGTASVVCLLNNFYPREAKVQWKVDNALQSGNSQESVTEQDSKDSTYSLSSTLTLSKADYEKHKVYACEVTHQGLSSPVTKSFNRGEC |
| 286 | 156 | 129 | mAb_LC_Hm_G33I (antibody, human IgG1, kappa) heavy: not shown light: DIQLTQSPSSLSASVGDRVSITCKASQDVSIAVAWYQQKPGKAPKLLIYSASYRYTGVPDRFSGSGSGTDFTLTISSLQPEDFAVYYCQQHYITPLTFGAGTKVEIKRTVAAPSVFIFPPSDEQLKSGTASVVCLLNNFYPREAKVQWKVDNALQSGNSQESVTEQDSKDSTYSLSSTLTLSKADYEKHKVYACEVTHQGLSSPVTKSFNRGEC |
| 300 | 142 | 158 | mAb_LC_Hm_F101E (antibody, human IgG1, kappa) heavy: not shown light: DIQLTQSPSSLSASVGDRVSITCKASQDVSIAVAWYQQKPGKAPKLLIYSASYRYTGVPDRFSGSGSGTDFTLTISSLQPEDFAVYYCQQHYITPLTFGAGTKVEIKRTVAAPSVFIFPPSDEQLKSGTASVVCLLNNFYPREAKVQWKVDNALQSGNSQESVTEQDSKDSTYSLSSTLTLSKADYEKHKVYACEVTHQGLSSPVTKSFNRGEC |
| 291 | 80.5 |  | mAb_Lm_V29R_HC (antibody, human IgG1, kappa) heavy: not shown light: DIQLTQSPSSLSASVGDRVSITCKASQDRSIAVAWYQQKPGKAPKLLIYSASYRYTGVPDRFSGSGSGTDFTLTISSLQPEDFAVYYCQQHYITPLTFGAGTKVEIKRTVAAPSVFIFPPSDEQLKSGTASVVCLLNNFYPREAKVQWKVDNALQSGNSQESVTEQDSKDSTYSLSSTLTLSKADYEKHKVYACEVTHQGLSSPVTKSFNRGEC |
| 278 | 71.4 | 207 | mAb_LC_Hm_F108T (antibody, human IgG1, kappa) heavy: not shown light: DIQLTQSPSSLSASVGDRVSITCKASQDVSIAVAWYQQKPGKAPKLLIYSASYRYTGVPDRFSGSGSGTDFTLTISSLQPEDFAVYYCQQHYITPLTFGAGTKVEIKRTVAAPSVFIFPPSDEQLKSGTASVVCLLNNFYPREAKVQWKVDNALQSGNSQESVTEQDSKDSTYSLSSTLTLSKADYEKHKVYACEVTHQGLSSPVTKSFNRGEC |
| 324 | 94.9 | 230 | mAb_LC_Hm_F108Q (antibody, human IgG1, kappa) heavy: not shown light: DIQLTQSPSSLSASVGDRVSITCKASQDVSIAVAWYQQKPGKAPKLLIYSASYRYTGVPDRFSGSGSGTDFTLTISSLQPEDFAVYYCQQHYITPLTFGAGTKVEIKRTVAAPSVFIFPPSDEQLKSGTASVVCLLNNFYPREAKVQWKVDNALQSGNSQESVTEQDSKDSTYSLSSTLTLSKADYEKHKVYACEVTHQGLSSPVTKSFNRGEC |
| 226 | 181 |  | mAb_Lm_Y92N_HC (antibody, human IgG1, kappa) heavy: not shown light: DIQLTQSPSSLSASVGDRVSITCKASQDVSIAVAWYQQKPGKAPKLLIYSASYRYTGVPDRFSGSGSGTDFTLTISSLQPEDFAVYYCQQHNITPLTFGAGTKVEIKRTVAAPSVFIFPPSDEQLKSGTASVVCLLNNFYPREAKVQWKVDNALQSGNSQESVTEQDSKDSTYSLSSTLTLSKADYEKHKVYACEVTHQGLSSPVTKSFNRGEC |
| 291 | 71.9 | 219 | mAb_LC_Hm_F29G (antibody, human IgG1, kappa) heavy: not shown light: DIQLTQSPSSLSASVGDRVSITCKASQDVSIAVAWYQQKPGKAPKLLIYSASYRYTGVPDRFSGSGSGTDFTLTISSLQPEDFAVYYCQQHYITPLTFGAGTKVEIKRTVAAPSVFIFPPSDEQLKSGTASVVCLLNNFYPREAKVQWKVDNALQSGNSQESVTEQDSKDSTYSLSSTLTLSKADYEKHKVYACEVTHQGLSSPVTKSFNRGEC |
| 285 | 178 |  | mAb_LC_Hm_S104D (antibody, human IgG1, kappa) heavy: not shown light: DIQLTQSPSSLSASVGDRVSITCKASQDVSIAVAWYQQKPGKAPKLLIYSASYRYTGVPDRFSGSGSGTDFTLTISSLQPEDFAVYYCQQHYITPLTFGAGTKVEIKRTVAAPSVFIFPPSDEQLKSGTASVVCLLNNFYPREAKVQWKVDNALQSGNSQESVTEQDSKDSTYSLSSTLTLSKADYEKHKVYACEVTHQGLSSPVTKSFNRGEC |
